Source: PMC7530648 (2020)
No end group written: not given here.

Biological target: T1, S8-meSRK (S8-SRK ectodomain containing 11 mutations), purified, tags removed (Brassica rapa, three sugar chains (seen in the crystal structure))
T1 chain: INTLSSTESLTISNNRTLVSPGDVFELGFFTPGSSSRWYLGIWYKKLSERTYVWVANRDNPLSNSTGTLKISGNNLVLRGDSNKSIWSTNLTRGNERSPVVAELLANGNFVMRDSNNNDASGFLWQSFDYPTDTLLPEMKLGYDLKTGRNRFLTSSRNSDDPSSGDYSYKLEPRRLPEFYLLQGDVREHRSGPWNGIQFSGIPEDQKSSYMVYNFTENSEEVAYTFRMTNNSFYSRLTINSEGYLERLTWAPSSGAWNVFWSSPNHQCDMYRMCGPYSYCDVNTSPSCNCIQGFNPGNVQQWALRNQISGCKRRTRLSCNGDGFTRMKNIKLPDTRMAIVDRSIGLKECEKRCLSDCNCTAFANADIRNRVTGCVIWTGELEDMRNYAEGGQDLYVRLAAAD
Assay: ITC

Kd: 20.2 nM
B1: biotin-S8-SP11, chemically synthesized (ligand)
chain: NLMKRCTRGFRKLGKCTTLEEEKCKTLYPRGQCTCSDSKMNTHSCDCKSC
modifications: not fully specified; cysteine pairing not given here; also: biotin-S8 (position not given here)
